In assay [1] the target is T1, GAL4 activation domain-MP36a fusion (pGAD10 clone MP36a) (UniProt P04386 768-881).
T1 construct: Prey clone from a human brain cDNA library
The assay is described as follows: yeast two-hybrid liquid assay (β-galactosidase).

The target in assay [2] is T2, GAL4 activation domain-MP23a fusion (pGAD10 clone MP23a, partial synapsin-like protein) (human).
T2 construct: Partial clone; also called SLP (MP23a)
T2 chain: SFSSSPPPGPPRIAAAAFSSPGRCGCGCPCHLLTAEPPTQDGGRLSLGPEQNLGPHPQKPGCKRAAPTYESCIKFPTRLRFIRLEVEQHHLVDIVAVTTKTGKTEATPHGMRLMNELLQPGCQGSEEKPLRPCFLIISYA
The assay is described as follows: yeast two-hybrid liquid assay (β-galactosidase).

B1: GAL4 binding domain-parkin(1-465) fusion encoded by pGBT9-parkin(1-465) (other, UniProt P04386 1-147, looked up)
chain: MKLLSSIEQACDICRLKKLKCSKEKPKCAKCLKNNWECRYSPKTKRSPLTRAHLTEVESRLERLEQLFLLIFPREDLDMILKMDSLQDIKALLTGLFVQDNVNKDAVTDRLASVETDMPLTLRQHRISATSSSEESSNKGQRQLTVSMIVFVRFNSSHGFPVEVDSDTSIFQLKEVVAKRQGVPADQLRVIFAGKELRNDWTVQNCDLDQQSIVHIVQRPWRKGQEMNATGGDDPRNAAGGCEREPQSLTRVDLSSSVLPGDSVGLAVILHTDSRKDSPPAGSPAGRSIYNSFYVYCKGPCQRVQPGKLRVQCSTCRQATLTLTQGPSCWDDVLIPNRMSGECQSPHCPGTSAEFFFKCGAHPTSDKETSVALHLIATNSRNITCITCTDVRSPVLVFQCNSRHVICLDCFHLYCVTRLNDRQFVHDPQLGYSLPCVAGCPNSLIKELHHFRILGEEQYNRYQQYGAEECVLQMGGVLCPRPGCGAGLLPEPDQRKVTCEGGNGLGCGFAFCRECKEAYHEGECSAVFEASGTTTQAYRVDERAAEQARWEAASKETIKKTTKPCPRCHVPVEKNGGCMHMKCPQPQCRLEWCWNCGCEWNRVCMGDHWFDV
notes: Yeast two-hybrid bait expressed in yeast strain Y190; also called parkin bait
On to B1, for which the results for the “fold β-galactosidase activity over negative control vector pGBT9” value in assay [1] and in assay [2] were about 20 fold and about 30 fold, respectively.

These data come from US8138307 (CEDARS SINAI MEDICAL CENTER, dated 2012).
